Measurements reported in patent US20030119733A1, “Compositions and methods for inhibiting hepatocyte invasion by malarial sporozoites” (New York University, priority 1992, published 2003).

B1: Falciparum-1: Same as Falciparum-2 minus most of Region II+ (P. falciparum residues 43-348) (protein)
chain: AGTNLYNELEMNYYGKQENWYSLKKNSRSLGENDDGNNNNGDNGREGKDEDKRDGNNEDNEKLRKPKHKKLKQPGDGNPDPNANPNVDPNANPNVDPNANPNVDPNANPNANPNANPNANPNANPNANPNANPNANPNANPNANPNANPNANPNANPNANPNANPNVDPNANPNANPNANPNANPNANPNANPNANPNANPNANPNANPNANPNANPNANPNANPNANPNANPNANPNANPNANPNKNNQGNGQGHNMPNDPNRNVDENANANNAVKNNNNEEPSDKHIEQYLKKIKNSISTEWSP
B2: Falciparum-2: fragment of P. falciparum CS protein with repeats and Region II+ (residues 43-391) (protein)
chain: AGTNLYNELEMNYYGKQENWYSLKKNSRSLGENDDGNNNNGDNGREGKDEDKRDGNNEDNEKLRKPKHKKLKQPGDGNPDPNANPNVDPNANPNVDPNANPNVDPNANPNANPNANPNANPNANPNANPNANPNANPNANPNANPNANPNANPNANPNANPNANPNVDPNANPNANPNANPNANPNANPNANPNANPNANPNANPNANPNANPNANPNANPNANPNANPNANPNANPNANPNANPNKNNQGNGQGHNMPNDPNRNVDENANANNAVKNNNNEEPSDKHIEQYLKKIKNSISTEWSPCSVTCGNGIQVRIKPGSANKPKDELDYENDIEKKICKMEKCSS

What was measured:
[1] = tested on: hepatocyte microvilli in the Space of Disse; assay: Electron immunomicroscopy of liver sections; format: binding, rat; details: MAb 2A10 and gold conjugate
Procedure: Rat or mouse liver tissue or hepatocyte subcellular fractions from Example 2 were fixed in PBS containing 1% glutaraldehyde (grade 1, Sigma, St. Louis, Mo.) and 4% paraformaldehyde (Kodak, Rochester, N.Y.), dehydrated in ethanol, and embedded in LR White (Polysciences, Warrington, Wash.). (Frevert et al., Infect. and Immun. 60:2349-2360, June 1992.) Normal human liver was embedded in Lowicryl K4M (Ted Pella, Redding, Calif.). Ultrathin sections were labelled by incubating them sequentially with 10-50 μg/ml CS27IVC, CSFZ (Cys), Falc-2, or Falc-1 for 30 min.; 15 μg/ml MAb 2A10 for 30 min.; protein A-gold 15 nm (PAG15, 1:30; Amersham, Arlington, Ill.) or goat anti-mouse IgG gold 10 nm (GAM10, 1:30; Amersham) for 30 min. Control specimens were incubated in the absence of CS and only with the gold conjugates. Photographs were taken with a Philips EM 301 electron microscope.
To identify the hepatocyte structures interacting with the CS, glutaraldehyde-fixed and LR White-embedded thin sections of rat liver were incubated with the recombinant CS polypeptide CS27IVC, mAb 2A10 and goat anti-mouse IgG-gold and analyzed by immunoelectron microscopy. Human liver tissue embedded in K4M was also labelled with CS27IVC followed by MAb 2A10 and protein A-gold.

[2] = tested on: heparan sulfate proteoglycans (HSPG); assay: CS/proteoglycan co-immunoprecipitation; format: binding, human; details: for co-immunoprecipitation of 35SO4-labeled sulfated molecules: lysates of rat liver, HepG2 cells, kidney, others 64 μg/ml; for total sulfate-labeled proteoglycans precipitated: trypsin-released proteoglycan, equivalent concentrations of Region II+
Procedure: All extracts and supernatants were first precleared with normal rabbit serum and Staph A cells. Then 32 μg/ml of CSFZ(Cys) or 64 μg/ml of CS27IVC, Falc-2 or Falc-1 were added for 30 minutes, followed by 10.8 μg/ml mAb 2A10 for 30 minutes, and 1% Staph A cells (final concentrations). The suspensions were shaken for 1 to 5 hours at 4° C. The Staph A cells were washed 3 times with the lysis buffer A, 2 times with lysis buffer B (10 mM Tris-HCl, pH 7.2, containing 100 mM NaCl and 0.5% NP40), 1 time with 50 mM Tris-HCl, ph 7.2, and were processed in this buffer for electrophoresis under reducing and non-reducing conditions.
Extracts of cells metabolically labeled with ^35SO4 were incubated for 30 minutes at 4° C. with 32 μg/ml of recombinant CSFZ(Cys) or 64 μg/ml Falc-1, and were immunoprecipitated with mAb 2A10 and Staph A cells. […] Immunoprecipitation with Falc-1 was negative. The SDS-PAGE patterns of the total lysate of HepG2 cells, and of the molecules co-immunoprecipitated with CSFZ(Cys) resembled the corresponding liver SDS-PAGE patterns. In kidney lysates, CSFZ(Cys) selectively immunoprecipitated a band of slightly lower molecular weight than the total kidney sulfated molecules.
Sub-confluent HepG2 cells were incubated with various concentrations of trypsin for 5 minutes at 4° C. […] Independently of the trypsin concentration, about 80% of the released HSPG was co-immunoprecipitated by 32 μg/ml CSFZ(Cys) and 10.8 μg/ml mAb 2A10. Under the same conditions, Falc-1 was negative.
^35SO4-labeled trypsin-released proteoglycan (total supernatant) was precipitated by CSFZ(Cys) (32 μg/ml), Falc-2 (64 μg/ml), CS27IVC (64 μg/ml) and Falc-1 (64 μg/ml). The labeled molecules were incubated with CSFZ(Cys), CS27IVC, and Falc-2 at equivalent concentrations of Region II+, and co-immunoprecipitated with the mAb 2A10. CSFZ(Cys), lacking most of the repeat region, precipitated up to 86% of the total sulfate-labeled proteoglycans (see FIG. 14), while CS27IVC and Falc-2 precipitated only 18% and 6% of the counts, respectively. Falc-1, which lacks Region II+, was negative.
Subconfluent sulfate-labeled HepG2 cells were incubated with 20 μg/ml trypsin for 5 minutes at 4° C., and the supernatants were loaded onto an anion exchange chromatography Pharmacia mono-Q column. These were eluted with a 0 to 2 M NaCl gradient in the presence of 7 M urea. […] Protein was not detectable in the labeled peaks. One ml fractions were collected and counted.

[3] = Solid phase binding assay, sulfatide; details: lipid dried into microtiter wells
Procedure: Solid phase binding assays: Thirty μl of lipids or steroids dissolved in methanol (20-250 μg/ml) were dried into wells of microassay plates (Cat.# 3911—Falcon—Oxnard, Calif.). The plates were then blocked with 1% BSA/PBS pH 7.4 (BSA/PBS) for 30 minutes. Wells were incubated with recombinant protein (or with parasite extract) in PBS/BSA for 1 hour, washed 3 times with BSA/PBS, incubated for 1 hour with monoclonal antibodies 2F2 or 2A10 in BSA/PBS, washed 3 times, and then incubated with (10^5 cpm/well) ^125I protein A (Amersham Corp., Arlington Hts., Ill.). In the case of the P. berghei CS protein, wells were incubated with ^125I labelled mAb 3D11. Wells were washed again and the bound radioactive protein was counted in an LKB gamma-counter (model #1260, Pharmacia, Inc., Gaithersburg, Md.). For inhibition assays, the recombinant proteins were mixed with dilutions of the various polymers in BSA/PBS, the mixture was loaded into the wells of the microtiter plates, and the binding assay performed as above. See also, Roberts, et al. J. Biol. Chem. 260:9405-9411, 1985.
1.4 nmol of sulfatide (open squares), cholesterol-3-sulfate (closed triangles), galactocerebroside I (closed circles), galactocerebroside II (open circles) and cholesterol (open triangles) were evaporated into microtiter wells and then incubated with serial dilutions of Vivax-2. […]

Molecule	gold labelling of liver sections [1]	co-immunoprecipitation of 35SO4-labeled sulfated molecules ([2]; CSFZ(Cys) 32 μg/ml, listed as Falc-1)	released HSPG co-immunoprecipitated ([2]; trypsin-released from HepG2 cells, CSFZ(Cys) 32 μg/ml, mAb 2A10 10.8 μg/ml)	total sulfate-labeled proteoglycans precipitated [2]	binding to sulfatide [3]	co-immunoprecipitation of 35SO4-labeled sulfated molecules ([2]; CSFZ(Cys) 32 μg/ml)
B1	negative	Negative results	negative	negative	did not bind	–
B2	essentially the same results but with lower staining intensity	–	–	6%	specifically bound sulfatide	less efficient
